Data as given in publication PMC6136799, “The Npa1p complex chaperones the assembly of the earliest eukaryotic large ribosomal subunit precursor” (PLoS Genetics, 2018).

How the values were obtained:
GST-Npa1p = target: T1, GST-Npa1p (S. cerevisiae, UniProt P34241 1-1764); assay: pull-down; 2 μg GST-tagged protein on glutathione magnetic beads, 2 μg His-Dbp6p in 200 μl IP buffer (50 mM Tris-HCl pH 8, 150 mM potassium chloride, 5 mM magnesium chloride, 0.2% Nonidet P-40), 1 h at 16°C; Western with anti-His; also after RNase A treatment; settings: both partners purified
T1 construct: Npa1p, S. cerevisiae; NPA1 ORF inserted into XhoI-digested pGEX-6P1 (plasmid pRC59); source: E. coli Rosetta λDE3, purified (Glutathione Sepharose 4 FF)
T1 sequence (P34241 whole entry): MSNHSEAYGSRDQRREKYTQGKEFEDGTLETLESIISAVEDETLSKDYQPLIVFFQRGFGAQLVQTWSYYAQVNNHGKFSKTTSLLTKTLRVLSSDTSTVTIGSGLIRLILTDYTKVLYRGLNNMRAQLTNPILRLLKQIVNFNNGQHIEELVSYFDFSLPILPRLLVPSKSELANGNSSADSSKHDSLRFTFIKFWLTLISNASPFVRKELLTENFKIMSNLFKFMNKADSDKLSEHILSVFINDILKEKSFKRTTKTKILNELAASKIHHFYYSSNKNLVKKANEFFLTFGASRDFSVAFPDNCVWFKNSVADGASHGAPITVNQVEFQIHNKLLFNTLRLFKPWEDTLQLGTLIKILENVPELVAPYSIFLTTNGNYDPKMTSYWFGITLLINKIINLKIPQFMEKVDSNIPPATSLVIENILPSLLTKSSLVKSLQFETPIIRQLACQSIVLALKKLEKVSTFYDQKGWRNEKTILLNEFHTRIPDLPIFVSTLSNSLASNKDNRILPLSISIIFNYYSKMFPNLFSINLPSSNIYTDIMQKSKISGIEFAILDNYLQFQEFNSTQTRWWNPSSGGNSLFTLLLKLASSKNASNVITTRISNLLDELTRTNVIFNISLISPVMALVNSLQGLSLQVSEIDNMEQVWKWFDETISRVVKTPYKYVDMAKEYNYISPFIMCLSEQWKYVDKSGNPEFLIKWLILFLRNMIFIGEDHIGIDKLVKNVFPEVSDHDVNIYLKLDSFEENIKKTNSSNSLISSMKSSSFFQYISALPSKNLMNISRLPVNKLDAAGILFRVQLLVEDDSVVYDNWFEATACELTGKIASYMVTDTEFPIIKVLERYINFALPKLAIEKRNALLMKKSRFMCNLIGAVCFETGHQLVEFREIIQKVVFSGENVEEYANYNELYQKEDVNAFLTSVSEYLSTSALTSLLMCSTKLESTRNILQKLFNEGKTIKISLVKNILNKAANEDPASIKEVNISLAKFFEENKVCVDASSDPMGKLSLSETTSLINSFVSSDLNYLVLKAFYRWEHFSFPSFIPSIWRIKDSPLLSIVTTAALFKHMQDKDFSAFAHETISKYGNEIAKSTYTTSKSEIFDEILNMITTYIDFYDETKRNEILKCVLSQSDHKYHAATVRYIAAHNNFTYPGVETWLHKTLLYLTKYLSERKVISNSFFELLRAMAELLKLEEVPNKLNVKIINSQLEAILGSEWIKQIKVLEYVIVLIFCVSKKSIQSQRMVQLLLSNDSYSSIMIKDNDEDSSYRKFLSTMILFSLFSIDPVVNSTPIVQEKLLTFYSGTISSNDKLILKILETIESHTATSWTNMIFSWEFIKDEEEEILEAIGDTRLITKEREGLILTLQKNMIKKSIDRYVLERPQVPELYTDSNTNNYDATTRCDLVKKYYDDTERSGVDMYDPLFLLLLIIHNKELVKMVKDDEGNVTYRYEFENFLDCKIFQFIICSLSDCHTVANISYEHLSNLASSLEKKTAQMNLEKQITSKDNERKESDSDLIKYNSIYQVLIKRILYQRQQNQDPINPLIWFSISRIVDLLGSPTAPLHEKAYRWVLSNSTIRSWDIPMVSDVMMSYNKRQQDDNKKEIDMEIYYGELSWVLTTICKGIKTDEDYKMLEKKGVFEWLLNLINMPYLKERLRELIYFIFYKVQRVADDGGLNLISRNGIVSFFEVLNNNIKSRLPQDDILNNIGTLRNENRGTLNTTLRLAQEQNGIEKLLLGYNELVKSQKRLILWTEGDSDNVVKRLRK

GST-Npa2p = target: T2, GST-Npa2p (S. cerevisiae, UniProt P47108 1-1174); assay: as above; settings: both partners purified
T2 construct: Npa2p, S. cerevisiae; NPA2 ORF inserted into XhoI-digested pGEX-6P1 (plasmid pRC58); source: E. coli Rosetta λDE3, purified (Glutathione Sepharose 4 FF)
T2 sequence (looked up): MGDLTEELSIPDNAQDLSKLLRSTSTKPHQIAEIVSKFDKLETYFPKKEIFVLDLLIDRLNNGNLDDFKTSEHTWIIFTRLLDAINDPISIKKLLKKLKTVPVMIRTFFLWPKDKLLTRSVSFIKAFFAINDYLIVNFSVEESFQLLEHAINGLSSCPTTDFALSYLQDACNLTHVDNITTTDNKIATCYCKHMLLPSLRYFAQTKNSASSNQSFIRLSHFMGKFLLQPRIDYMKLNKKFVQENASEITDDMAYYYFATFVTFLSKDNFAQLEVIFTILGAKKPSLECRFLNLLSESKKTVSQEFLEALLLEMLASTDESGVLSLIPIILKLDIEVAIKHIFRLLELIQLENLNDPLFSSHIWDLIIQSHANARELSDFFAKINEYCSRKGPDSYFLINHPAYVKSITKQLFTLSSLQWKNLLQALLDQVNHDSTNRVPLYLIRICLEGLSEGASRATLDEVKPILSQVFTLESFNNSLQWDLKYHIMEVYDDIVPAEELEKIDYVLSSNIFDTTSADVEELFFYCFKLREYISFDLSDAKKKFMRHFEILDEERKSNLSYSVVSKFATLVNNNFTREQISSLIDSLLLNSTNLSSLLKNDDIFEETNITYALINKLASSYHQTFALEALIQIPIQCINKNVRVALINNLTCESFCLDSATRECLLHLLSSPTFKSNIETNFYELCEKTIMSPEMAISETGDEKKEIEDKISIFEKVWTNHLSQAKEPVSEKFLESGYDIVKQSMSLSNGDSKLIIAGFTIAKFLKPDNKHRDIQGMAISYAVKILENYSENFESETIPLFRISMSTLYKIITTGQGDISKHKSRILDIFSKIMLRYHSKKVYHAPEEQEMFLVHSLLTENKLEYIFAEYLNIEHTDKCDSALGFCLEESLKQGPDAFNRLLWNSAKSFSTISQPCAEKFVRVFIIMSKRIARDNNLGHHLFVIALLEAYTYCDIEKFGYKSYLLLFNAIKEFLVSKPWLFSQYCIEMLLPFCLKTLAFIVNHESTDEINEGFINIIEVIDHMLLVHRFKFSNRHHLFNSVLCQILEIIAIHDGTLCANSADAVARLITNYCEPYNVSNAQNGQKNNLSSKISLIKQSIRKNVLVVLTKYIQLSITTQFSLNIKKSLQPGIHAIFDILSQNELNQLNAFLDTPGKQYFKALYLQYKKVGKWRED

B1: His-Dbp6p (natural protein, S. cerevisiae, UniProt P53734 1-629, looked up)
chain: MFASRFDPSQLTAPAASAPEGIVGTTPPAIVPLKRQATESDNEEYGSHQDSDESSNSSSEEDEDRMQVDYGASEEDSSEVEEEESKPSTHSTVLSRFKQTVSLQERLGASDIAESKEDEGIEDEAASTHQLKQIPQPEFVKNPMNLNTNSLQFKSTGWLNTEKIYYDNSLIKPFSDYANELEAKLLQNICKNFSTNTFPIQSIILDSILPVLNFTLNVSKRNFTRRIGDILVNAATGSGKTLAYSIPIVQTLFKRQINRLRCIIIVPTKLLINQVYTTLTKLTQGTSLIVSIAKLENSLKDEHKKLSNLEPDILITTPGRLVDHLNMKSINLKNLKFLIIDEADRLLNQSFQGWCPKLMSHLKTDKLDTLPGNVIKMIFSATLTTNTEKLNGLNLYKPKLFLKQTDKLYQLPNKLNEFNINIPTAKSVYKPLILLYSICQFMAHSPIAAKILIFVKSNESSIRLSKLLQLICESRSQSSVLKNLQNLAVSINSVNSNNSKAENKKIVANFSHHSESAGITILITTDIMSRGIDINDITQVINYDPPMSSQQYVHRVGRTARANELGSAYNLLVGRGERTFFDDLNKDLDRDGKSVQPLELDFTLLESDSELYTSSLESLKNYHNNTAQA
notes: Dbp6p, S. cerevisiae; DBP6 ORF cloned into a modified pET-15b (plasmid pET-DBP6); also called His-tagged Dbp6p; source: E. coli Rosetta λDE3, purified (HisTrap FF, Superdex 200)
GST-Npa1p
  binding result: binds
GST-Npa2p
  binding result: binds
